This note sets out measurements from patent publication US10883980 (TRUSTEES OF PRINCETON UNIVERSITY, dated 2021).

Data set [1] deals with the molecule itself. Briefly: Western blot (anti-HA) of lysates from cells expressing ORF3-HA; self-association. A general note: Immunoblotting shows a protein as a band on a membrane.
Data set [2] concerns the molecule itself. As to the kind of experiment: Western blot (anti-HA) of HepG2C3A lysates; self-association.

B1: ORF3-HA (HA-tagged wild-type HEV ORF3 protein, Kernow C1/p6) (other)
chain: MGSPCALGLFCCCSSCFCLCCPRHRPASRLAVVVGGAAAVPAVVSGVTGLILSPSPSPIFIQPTPSPPISFHNPGLELALGSRPAPLAPLGVTSPSAPPLPPAVDLPQLGLRR
notes: Expressed by lentivirus in HepG2C3A cells and tested in cell lysate; also called HEV ORF3-HA; HA-tagged ORF3; not shown: HA tag; the name ORF3-HA puts it at the C-terminus
As to B1, in data set [1], the binding result is reported as “binds”.

B2: ORF3[IFI59-61AAA], HA-tagged (other)
chain: MGSPCALGLFCCCSSCFCLCCPRHRPASRLAVVVGGAAAVPAVVSGVTGLILSPSPSPAAAQPTPSPPISFHNPGLELALGSRPAPLAPLGVTSPSAPPLPPAVDLPQLGLRR
notes: Alanine triplet mutant of Kernow C1/p6 ORF3; also called ORF3[IF159-61AAA]; not shown: HA tag
On to B2, for which, in data set [2], the binding result is reported as “binds”.
